The target of assay [1] is Dok1 pY362 peptide (human). Description: SPR. A general note: Surface plasmon resonance follows binding to a sensor surface in real time, without labels.
Assay [2] has as its target Dok2 pY345 peptide (human). The assay can be described thus: SPR.

This passage reports Kd results from article PMC2999833.

A word on the Kd: it is the constant that tells how readily two partners part at equilibrium.

As to “Full-length recombinant His tagged human Nck1 (from UniProt P16333 1-377) (natural protein)”, the Kd turned out to be 600 nM in assay [1] and 3500 nM in assay [2].
